Reference: the nanobody polyreactivity screen of Harvey et al. (2022)

Assay: yeast display, Sf9 membrane polyspecificity reagent, FACS + sequencing; frameworks hold sequencing errors
Summary of the method: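 A synthetic nanobody library was expressed on Saccharomyces cerevisiae BJ5465 by galactose induction for 36–48 hours. The library was stained for 1 hour at 4 °C with 10% biotinylated, detergent-solubilized Sf9 membrane reagent and enriched with streptavidin microbeads before FACS. Low and high (top ~1%) gates were set on anti-HA fluorescence for expression and streptavidin fluorescence for reagent binding, and each polyreactivity label reflects the gate of origin.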

Row | Sequence | polyreactivity (PSR sort gate)
1 | QVQLVESGGGLVQAGGSIRLSCAASGRTAKRYAMGWYRQAPGKERELVAAISRGGGSTYYADSVKGRFTISRDNAKNTVYLQMNSLKPEDTAVYYCAADLNSYTRYDYWGQGTQVTVSS | high polyreactivity
2 | QVQLVESGGGLVQAGGSIRLSCAASGRTFGDYAMGWYRQAPGKERELVAAISSSGGRTYYADSVKGRFTISRDNAKNTVYLQMNSLKPEDTAVYYCAAQSKYYQYYSWGQGTQVTVSS | high polyreactivity
3 | QVQLVESGGGLVQAGGSIRLSCAASGRTFVPYVMGWYIQAPGKERELVATINWSGGSTYYADSVKGRFSISRDNAKNTVYLQMNSLKPEDTADYYCDARYYSDWFYYLFRYDYWGQGTQVTVSS | low polyreactivity
4 | QVQLVESGGGLVQAGGSIRLSCAASGSIFSWYAMGWYSQAPGKERELVAAITSDGGTNYADSVKGRFTISRDNAMNTVYLQMNTLKPEDTAVYYCAADYWYSWRRSHYAHRYGYWGQGTQVTVSS | low polyreactivity
5 | QVQLVESGGGLVQAGGSIRLSCAASGSIVVSYAMGWYRQAPGKERELVAAITVSGGSTYYADSVKGRFTISRDNAKNTVYLQMNSLKPEDTAVYYCAADSWDDWVVEFYYWGQGTQVNVSS | low polyreactivity
6 | QVQLVESGGGLVQAGGSIRLSCAASGSTFANYAMGWYRQAPGKERELVAAISWSGSYTYYADSVKGSFTISRDNAKNTVYLQMNSLKPEDTAVYYCAADYDTPTWEYYYWGQGTQVTVSS | low polyreactivity
7 | QVQLVESGGGLVQAGGSIRLSCAASGSTFWPYAMGWYRQAPGKERELVAAITTSGGITYYADSVKGRFTISRDKAKITVYLQMNSVKPEDTAVYYCAADLSYHGYGYWGQGTQVTVSS | low polyreactivity
8 | QVQLVESGGGLVQAGGSIRLSCAASGSTFYIYAMGWYRQAPGQERELVATISWSGGSTYYADSVKGRFTISRDNAKNTVYLQMNSLKPEDTAVYYCAVRPGFGRSLWYGYWGQGTQVTVSS | high polyreactivity
9 | QVQLVESGGGLVQAGGSIRLSCAASGSTLQGNAMGWYRQAPGKERELDAAISRSGGSTYADSVKGRFTISRDNAKNTVYLLMNSLKPEDTAVYYCAAYSGVGYLWFVYWGQGTQVTVSS | low polyreactivity
10 | QVQLVESGGGLVQAGGSIRLSCAASRFTFGPYAMGWYRQAHVKERELVAAITIRGGSPYADSVKGRFTISRDNAKNTVYLQMNSLKPEDTAVYYCATVRALEYNYWGQGTQVTVSS | low polyreactivity
11 | QVQLVESGGGLVQAGGSIRLSCAASVSTFFVYTMGWYRQATGKGMELVAAISGSGGSTAYADSVKGRFTISRDNAKNTVYLQLNSLKPEDTAVYYCAARRHVYLRGSTFEFNYWGQGTQVTVSS | high polyreactivity
12 | QVQLVESGGGLVQAGGSIRLTCAASGRIFYGNAMGCYRQAPGKERELVAAISSGTSTNYADSVKGRFTISRDNAKTTVYLQMNSLKPEDTAVYYCAAGSYSRYLYSLYFDFDYWGQGTQVTVSS | low polyreactivity
13 | QVQLVESGGGLVQAGGSIRLTCAASGSIFYHYAMGWYRQAPAKERELVADITQSGGTTDYADSVKGRFTISRDNAKNTVYLQMNSLKTEDTAVYYCAADGDTTSPTYYIFWYGEFDYCGQGTQVTVSS | low polyreactivity
14 | QVQLVESGGGLVQAGGSIRLTSAASGRTFVTHPMGWYRQAPGKDRELVAAISRSGSSTYYADSVKGRFTISRDNAKNSVYLQMNSLKAADTAVYYFARVRSRATEVVEYDYWGQGTQVTVSS | high polyreactivity
15 | QVQLVESGGGLVQAGGSLCLSCAASGIFVYNAMGWYRPAPGKEREFVAAINKSGASTFYADSVKGRFTISRDTAKNTVYLQMNSLKPEDTAVYYCRERDYWGQGTQVTVSS | low polyreactivity
16 | QVQLVESGGGLVQAGGSLGLSCAASGIIFQANAMGWYRQAPGKERELVAGISRGSSTNYADSVKGRFTISRDNEKNTVYLQMNILKPEDTAVYYCASDRGYGRISRNYYWGQGTQVTVSS | low polyreactivity
17 | QVQLVESGGGLVQAGGSLGLSCAASGLIFRKYAMGWYRQAPGKERELVATINRSGGSTYYADSVKGRFTISRDNAKNTVYLQMNSLKPEATAVYYCATDRLSYGYKPGYTFYYWEQGTQVTVSS | high polyreactivity
18 | QVQLVESGGGLVQAGGSLGLSCAASGYSLGSYAMGWYRQAPGKERELVAAITSSGGSTYYADSVKGRFTSSRDYAKNTDYLQMNSLKPEDTAVYYCAAERGYHGGGSGLYDYWGQGTQVTVSS | low polyreactivity
19 | QVQLVESGGGLVQAGGSLGLSSAASGRTFGVYAMGWYRQAPGKERELVAGIRWRGGSTYYADSVKGRFTISRDNAKNTVYLQMNSLKPEDTAVYYCAADVYLVKYDYWGQGTQVTVSS | low polyreactivity
20 | QVQLVESGGGLVQAGGSLGLSWAASGSIIRYNALGWYRQAPGKERELVAAITKGAGSTYYADSEKGRFTISRDNAKNTVYLHMNSLKPEDTEVYYCNKARGSGHTYYSWGQGTQVTVSS | high polyreactivity
21 | QVQLVESGGGLVQAGGSLLISCAASGITFDGYAMGWYRHAPGKESELVARITATGFRTYYADSVKGRFTISRDYAKNTVYLKMNSLKPEDTAVYYCPRTTSCVQNVRKYYYWGQGTQVTVSS | high polyreactivity
22 | QVQLVESGGGLVQAGGSLLLSCAASGFTFGSYAMGLYRQAPGKERELVARITRGGNTYYADSVKGRFTISRDNAKNTVYLQMNSLKPVDTAVYYCNAYGRVSPLYQPYGNDAQGYYWGQGTQVTVSS | high polyreactivity

Row | Sequence | polyreactivity (PSR sort gate)
23 | QVQLVESGGGLVQAGGSLLLSCAASGGTFHYNAMGWYIQAPGKERELVAAITESGGRTYYADSVKGRFTISRDNAKNTVYLQMNSLKPEDTAVYYCNADQDSDAADRSAYWGQGSQVTVSS | low polyreactivity
24 | QVQLVESGGGLVQAGGSLLLSCAASGLIFYWYAMGWYRQAPGKERELVAAISGGDRTKYADSVKGRFTISRDNAKNTVYLQMISLKPEDSAVYYCATAPYDTSRRYGPYEYWGQRTQVTVSS | low polyreactivity
25 | QVQLVESGGGLVQAGGSLLLSCAASGNIIYSNALGWYRQGPGKERELVAAISSGGITYYADSVKGRFTISRDNAKNTVYLQMNSLKPEDTAVYYCAAYIRNWRATYEYWGQGTQVTVSS | high polyreactivity
26 | QVQLVESGGGLVQAGGSLLLSCAASGRIFDRNAIGWYRQAPGKERELVAAINSVGTTYYADSVKGRFTISRDNAKNTVYLQMNSLKPEDTAVYYCAARSAYRRGYWGQGTQVTLSS | high polyreactivity
27 | QVQLVESGGGLVQAGGSLLLSCAASGRIFFTNAMGWYRQAPRKERELVAAISKSGARTYYADSVKGRFTISRDKAKNTVYLQMNSLKPEDTAVYYCATDYAFPQYDDWGQGTQVTVSS | high polyreactivity
28 | QVQLVESGGGLVQAGGSLLLSCAASGRTFNYIAMGWYRQAPGKERELVAAISQGGGSTYYADSVKGRFTISRDNAKNTVYLQMNSLKPEVTAVSYFAADTWWYGKYDYWGQGTQVTVSS | low polyreactivity
29 | QVQLVESGGGLVQAGGSLLLSCAASGSIFGGNAMGWSRQAPGKVRELVAAITSSGGSTYYADSVKGRFTISRDNAKNTVYLQMNSLKPEDTAVYYCNKLSWRKYLGYEYWGQGTQVTVSS | high polyreactivity
30 | QVQLVESGGGLVQAGGSLLLSCAASGSIFSAYAMGWDRQAPGKERQLVAGISKRGGSTYYADSVKGRFTISRDNAKNTVYLQMNSLKPEDTAVYYCNAARYPYARAVTYHYPSYGYWGQGTQVTVSS | high polyreactivity
31 | QVQLVESGGGLVQAGGSLLLSCAASGSTFTQYAMGWYRQAPGKERELVAAINSRGDSTYYADSVKGRFTISRDNAKNTVYLQMNSLKPEDTAVYYCAKDPFPWALFDYWGQGTQVTVSS | low polyreactivity
32 | QVQLVESGGGLVQAGGSLLLSCAASGSTLFLYAMGWYRQAPGKERELVAGITYSGSTYADSVKGRFTISRDNAKNTVYFQMNSLKPEDTAVYYCAKDGYWNEEYSVGMDYWGQGTQVTVSS | low polyreactivity
33 | QVQLVESGGGLVQAGGSLLLSCAASGYTFGFYAMGWYTQAPGKERELVAAISASGGSTYYADSVKGRFTISRDNAKNTVYLQMNSVKPEETAVYYCAAVYSVYYHTWVTTRDYYYWGQGTQVTVSS | high polyreactivity
34 | QVQLVESGGGLVQAGGSLLLSCAASGYTLEYNAMGWNRQAPGKEREFVARIRWSGSSTYYADSVKGRCTISRDNAKNTVYLQMNSLKPEDTAVYYCNADDGYYVGLSSAIYDYWGQGTQVTVSS | high polyreactivity
35 | QVQLVESGGGLVQAGGSLLLSCAASRSISYAYAMGWYRQAHGKERELVAAISWSDGSTYYADSVKGRFTISRDNAKNTVYLQMNSLKPEDTAVYYCAADYGWHYGDWYDYWGQGTQVTVSS | low polyreactivity
36 | QVQLVESGGGLVQAGGSLLLSCAAYGSISPYYTMGLYRQAPGKERELVAAICSGGRTYYADSVKGRFTISRDNAKNTVYLHMNSLNPEDTSVYYCAVEVAWYVHWGDMDYWGQGTQVTVSS | low polyreactivity
37 | QVQLVESGGGLVQAGGSLLLSCGASGFIFYAYAMGWYRQAPVKDRELVAVMSSSGGSTYYADSVTGRFSISRAHAKTTVYLEWNSLKPDDTGGYYCAAETGTGETRYYRYWDYYYWGQGTQVTVSS | high polyreactivity
38 | QVQLVESGGGLVQAGGSLLLTCAASGRIISLYAMGWYRQAPGKERELVAGISGGTIKYYADSLKGRFTISRDNAKNTVYLQMNSLKAEDTAVYYCAAKPTYRGYGYGSWGHGTQVTVSS | low polyreactivity
39 | QVQLVESGGGLVQAGGSLPLSCAASGLTLYGNAMGWYRQAPAKEREMVADISLSGGRTFYADSVKGRFTITRDNAKNTVYLQMNSLKPEDTAVYYCAAVCRTGWYYEYYHWGQGSQVTVSS | low polyreactivity
40 | QVQLVESGGGLVQAGGSLPLSCAASGRTYVSYVMGRYRQAPGKEREFVAAISRSGGNTYYADSVKGRFTISRDTAKNTVYLQMNSLNPEDTAVYYCYVLLQRVYGTAPSFDYWGQGTQVTVSS | high polyreactivity
41 | QVQLVESGGGLVQAGGSLPLSCAASGSIFGINAMGWYRQAPGKERELVAAISSRGASTYYADSVKGRFTISRDNAKNTVYLQMNSLKPEDTAVYYCAADAFYWGQGTQVTVSS | low polyreactivity
42 | QVQLVESGGGLVQAGGSLPLSCAASGSIFKTYAMGWYREAPGKERELVAAIRDSGDRTYYADSVKGRFTISRDNAKNTVYLQMNSLKPEDTAVYYCNARWQEALKYDYWGQGTQVTVSS | low polyreactivity
43 | QVQLVESGGGLVQAGGSLPLSCAASGSIFMTYAIGWYRQAPGKERELVAAIRDSGDRTYYADSVKGRFTISRDNAKNTVYLQINSLKPEDTAVYYCNARWQEALKYDYWGQGTQVTVSS | low polyreactivity
